From patent US20250361529

Target: T1, UnCas12f1 (Un1Cas12f1) (UniProt A0A482D308)
T1 sequence: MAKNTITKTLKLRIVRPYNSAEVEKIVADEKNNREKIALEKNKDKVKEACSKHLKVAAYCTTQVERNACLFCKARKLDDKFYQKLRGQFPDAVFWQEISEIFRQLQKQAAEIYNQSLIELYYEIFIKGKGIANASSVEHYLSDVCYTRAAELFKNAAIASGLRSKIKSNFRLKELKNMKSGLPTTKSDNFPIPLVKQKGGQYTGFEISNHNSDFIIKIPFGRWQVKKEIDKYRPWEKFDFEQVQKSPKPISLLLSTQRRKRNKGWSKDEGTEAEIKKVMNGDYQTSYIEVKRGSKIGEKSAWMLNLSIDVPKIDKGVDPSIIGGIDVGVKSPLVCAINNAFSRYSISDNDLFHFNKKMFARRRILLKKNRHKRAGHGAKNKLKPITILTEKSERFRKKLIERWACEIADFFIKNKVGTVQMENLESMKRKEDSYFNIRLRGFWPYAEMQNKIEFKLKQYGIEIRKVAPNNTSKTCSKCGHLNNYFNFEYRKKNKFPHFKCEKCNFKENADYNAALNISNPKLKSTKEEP
Assay: cell_activity

“ACCGCUUCACCAAAAGCUGUCCCUUAGGGGAUUAGAACUUGAGUGAAGGUGGGCUGCUUGCAUCAGCCUAAUGUCGAGAAGUGCUUUCUUCGGAAAGUAACCCUCGAAACAAAGAAAGGAAUGCAACNNNNNNNNNNNNNNNNNNNNUUUUAUUUUUUCUCAUUCUCAUGCCUGGACA / TTTGCTCATTCTCATGCCTGGACA / TGTCCAGGCATGAGAATGAGCAAA [ge4.0-F142 sgRNA ; DMD F142 target]” was tested, and the activity (PAM TTTR (TTTG), HEK293, AC16 48.08) was 54 % indel.
Sequence “ACCGCUUCACCAAAAGCUGUCCCUUAGGGGAUUAGAACUUGAGUGAAGGUGGGCUGCUUGCAUCAGCCUAAUGUCGAGAAGUGCUUUCUUCGGAAAGUAACCCUCGAAACAAAGAAAGGAAUGCAACNNNNNNNNNNNNNNNNNNNNUUUUAUUUUUUCUCUCCUAGACCAUUUCCCA / TTTGCTCTCCTAGACCATTTCCCA / TGGGAAATGGTCTAGGAGAGCAAA [ge4.0-R52 sgRNA ; DMD R52 target]” has an activity (PAM TTTR (TTTG), HEK293, AC16 36.47) of 46.1 % indel.
In the case of “ACCGCUUCACUUAGAGUGAAGGUGGGCUGCUUGCAUCAGCCUAAUGUCGAGAAGUGCUUUCUUCGGAAAGUAACCCUCGAAACAAAGAAAGGAAUGCAACNNNNNNNNNNNNNNNNNNNNUUUUAUUUUUUACUGACUACUCCCCAAGUAU / TTTGACTGACTACTCCCCAAGTAT / ATACTTGGGGAGTAGTCAGTCAAA [ge4.1-F110 sgRNA ; DMD F110 target]”, the activity (ge4.1, PAM TTTG, HEK293, 5 days, no editing detected) is reported as 0 % indel.
“ACCGCUUCACUUAGAGUGAAGGUGGGCUGCUUGCAUCAGCCUAAUGUCGAGAAGUGCUUUCUUCGGAAAGUAACCCUCGAAACAAAGAAAGGAAUGCAACNNNNNNNNNNNNNNNNNNNNUUUUAUUUUUUCUCAUUCUCAUGCCUGGACA / TTTGCTCATTCTCATGCCTGGACA / TGTCCAGGCATGAGAATGAGCAAA [ge4.1-F142 sgRNA ; DMD F142 target]” showed an activity (PAM TTTR (TTTG), HEK293, AC16 19.18) of 50 % indel.
Work on “ACCGCUUCACUUAGAGUGAAGGUGGGCUGCUUGCAUCAGCCUAAUGUCGAGAAGUGCUUUCUUCGGAAAGUAACCCUCGAAACAAAGAAAGGAAUGCAACNNNNNNNNNNNNNNNNNNNNUUUUAUUUUUUUAGCUAGAUAAACUUGGGCU / TTTATAGCTAGATAAACTTGGGCT / AGCCCAAGTTTATCTAGCTATAAA [ge4.1-R16 sgRNA ; DMD R16 target]” yielded an activity (PAM TTTR (TTTA), HEK293, AC16 29.76) of 58.8 % indel.
